Consider one molecule from doi:10.1101/2025.10.16.681972 (bioRxiv, 2025).

This assay concerns the target recombinant soluble form (ectodomain) of human MERTK (Homo sapiens, UniProt Q12866). Description: SPR.

recombinant soluble form (ectodomain) of human MERTK, sequence (Q12866 21-505): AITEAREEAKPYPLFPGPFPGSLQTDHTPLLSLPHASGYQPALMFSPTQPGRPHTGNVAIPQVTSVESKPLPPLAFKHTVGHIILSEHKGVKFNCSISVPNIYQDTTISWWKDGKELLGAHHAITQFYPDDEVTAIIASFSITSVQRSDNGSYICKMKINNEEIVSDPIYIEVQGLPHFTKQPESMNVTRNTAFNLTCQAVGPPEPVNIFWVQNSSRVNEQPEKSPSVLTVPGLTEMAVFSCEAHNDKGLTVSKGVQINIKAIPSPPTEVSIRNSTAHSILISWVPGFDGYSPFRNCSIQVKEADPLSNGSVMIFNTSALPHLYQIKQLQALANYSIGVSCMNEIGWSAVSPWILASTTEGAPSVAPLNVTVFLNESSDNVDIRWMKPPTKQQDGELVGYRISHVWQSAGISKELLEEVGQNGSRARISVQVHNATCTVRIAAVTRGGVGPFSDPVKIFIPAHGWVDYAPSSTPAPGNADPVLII

B1: recombinant mAb745 (anti-MERTK, variable regions of mAb745 on human IgG1 and kappa constant regions) (antibody, V domains shown)
VH: DVQIQESGPGLVKSSQSLSLTCTVTGYSITNDYAWNWIRQFPGNKLEWMGYISYNGNTFYNPSLKSRISITRDTSKNQFFLQLSSVTTEDTATYYCGRLLPVSYAMDYWGQGTSVTVSS
VL: DVVMTQTPLSLPVSLGDQASISCRSSQSLVHSNGNTYLHWYLQKPGQSPKLLIYKVSNRFSGVPDRFSGSGSGTDFTLKISRVEAEDLGVYFCYQSTHVPWTFGGGTKLEIK
As to B1, the binding result was “binds”.
